Experimental data reported in patent US20250090639A1, “CONTROLLED-RELEASE CNP AGONISTS WITH LOW INITIAL NPR-B ACTIVITY” (priority 2016, published 2025).

What was measured:
recombinant human NEP = molecular target: T1, recombinant human NEP (Homo sapiens, UniProt P08473); assay: Digest of CNP variants by Neutral Endopeptidase in vitro; format: in vitro ADME; conditions: 100 μg CNP equivalents/mL, pH 7.4, 37° C., up to 4 days, normalized to mean CNP-34 or CNP-38 half life
T1 construct: purchased Enzo Life Sciences GmbH, Lörrach, Germany
Source text: Samples were taken at different time intervals. […] The resulting reaction products were assigned using HPLC-MS.

[1] = Evaluation of cardiovascular effects in the conscious telemetered mouse (subcutaneous administration); format: in vivo, Male Crl: CD1(1CR) mice; conditions: 800 μg CNP-38 (eq)/kg sc
Experimental: Male Crl: CD1(1CR) mice (age range 8-13 weeks and body weight range 27.3-35.6 g at start of dosing) were surgically implanted with a TA11PA-C10 telemetry transmitter (Data Sciences International (DSI)) in the carotid artery. The body of the transmitter was placed subcutaneously in the lateral flank of the mouse. The mice were dosed subcutaneously in a latin square crossover design with at least 72 hours between dosing occasions. […] At least four mice were included at each dose level. Blood pressure (systolic (SAP), diastolic (DAP) and mean (MAP) and heart rate (HR, derived from blood pressure), were recorded using a digital data capture system linked with a DSITM Ponemah data acquisition and analysis system. The capture system allowed recording of the cardiovascular parameters whilst the mice were in individual cages. On the day of each test session the animals were weighed and a predose recording was performed for at least 60 min prior to dosing. Each mouse was returned to the home cage and the cardiovascular parameters were recorded for approximately 48 hours postdose. Blood pressure and HR were reported at the following time points: −30, −20, −10, 5, 15 and 30 min postdose and 1, 2, 6, 12, 18, 24, 30, 36, 42 and 48 hours postdose. Each time point was presented as the average value of five minute's recording prior to the time point. […]

[2] = Pharmacokinetic profile of conjugate 11i after subcutaneous single-dose administration to cynomolgus monkeys; format: in vivo; conditions: single s.c. 40 μg CNP-38 eq/kg
Experimental: As internal standard deuterated CNP-38 conjugate was used.
After 3 hours incubation at 37° C. […] 10 μL were injected into the UHPLC-MS system.

T1 sequence (P08473 whole entry): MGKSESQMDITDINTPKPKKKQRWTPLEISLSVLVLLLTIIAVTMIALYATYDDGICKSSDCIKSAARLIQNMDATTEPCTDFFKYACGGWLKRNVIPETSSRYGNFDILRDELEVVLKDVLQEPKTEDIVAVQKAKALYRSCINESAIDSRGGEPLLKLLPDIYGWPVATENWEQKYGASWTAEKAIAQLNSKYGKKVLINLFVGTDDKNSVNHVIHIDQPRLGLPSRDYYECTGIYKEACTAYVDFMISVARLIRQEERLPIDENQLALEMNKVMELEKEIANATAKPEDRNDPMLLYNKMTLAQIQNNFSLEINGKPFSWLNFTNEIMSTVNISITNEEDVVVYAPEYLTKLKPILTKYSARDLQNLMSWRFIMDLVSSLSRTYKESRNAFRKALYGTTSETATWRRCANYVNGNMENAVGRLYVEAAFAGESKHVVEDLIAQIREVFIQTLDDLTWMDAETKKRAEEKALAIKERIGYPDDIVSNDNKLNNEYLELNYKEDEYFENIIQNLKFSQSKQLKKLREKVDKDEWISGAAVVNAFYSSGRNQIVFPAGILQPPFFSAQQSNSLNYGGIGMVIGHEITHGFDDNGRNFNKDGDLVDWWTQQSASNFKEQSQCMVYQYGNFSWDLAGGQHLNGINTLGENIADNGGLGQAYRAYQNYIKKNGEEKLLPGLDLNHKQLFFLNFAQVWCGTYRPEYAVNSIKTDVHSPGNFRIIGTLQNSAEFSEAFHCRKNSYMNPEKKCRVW

| Compound | half life norm. (recombinant human NEP) | also measured |
| --- | --- | --- |
| Permanent Lys26 CNP-38 PEG 5 kDa Conjugate [Conjugate 19e] | 62.76 h | – |
| Permanent Lys16 CNP-34 PEG 5 kDa Conjugate [Conjugate 17e] | 54.23 h | – |
| Permanent Lys22 CNP-34 PEG 5 kDa Conjugate [Conjugate 18e] | 38.87 h | – |
| Permanent N-Terminal CNP-34 PEG 5 kDa Conjugate [Conjugate 14e] | Almost no proteolysis | – |
| Permanent N-Terminal CNP-38 PEG 5 kDa Conjugate [Conjugate 15e] | Almost no proteolysis | – |
| CC[C@H](C)[C@@H]1NC(=O)[C@H](CCCNC(=N)N)NC(=O)[C@H](CC(=O)O)NC(=O)[C@H](CC(C)C)NC(=O)[C@H](CCCCN)NC(=O)[C@H](CC(C)C)NC(=O)CNC(=O)[C@H](Cc2ccccc2)NC(=O)[C@@H](NC(=O)CNC(=O)[C@H](CCCCN)NC(=O)[C@H](CO)NC(=O)[C@H](CC(C)C)NC(=O)CNC(=O)[C@H](CCCCN)NC(=O)[C@H](CCCCN)NC(=O)[C@H](CC(N)=O)NC(=O)[C@H](C)NC(=O)CNC(=O)[C@H](CCCCN)NC(=O)[C@H](Cc2ccc(O)cc2)NC(=O)[C@H](CCCCN)NC(=O)[C@H](CCCNC(=N)N)NC(=O)[C@H](C)NC(=O)[C@H](CC(N)=O)NC(=O)[C@@H]2CCCN2C(=O)[C@H](Cc2c[nH]cn2)NC(=O)[C@H](CCC(=O)O)NC(=O)[C@H](CCC(N)=O)NC(=O)[C@@H](N)CC(C)C)CSSC[C@@H](C(=O)O)NC(=O)CNC(=O)[C@H](CC(C)C)NC(=O)CNC(=O)[C@H](CO)NC(=O)[C@H](CCSC)NC(=O)[C@H](CO)NC(=O)CNC1=O [CNP-38, reference compound] | – | effect on HR [1]: not impacted; effect on MAP / blood pressure ([1]; 5, 15 and 30 min post dose): significant decrease in MAP |
| Reversible Lys26 CNP-38 PEG4×10 kDa Conjugate [Conjugate 11i] | – | tolerability [2]: well tolerated |
| Permanent Lys26 CNP-38 PEG4×10 kDa Conjugate [Conjugate 12g] | Almost no proteolysis | – |
